# Assay results reported in the Immune Epitope Database (IEDB).
# What was measured:
# HLA-A*02:03 = experiment: IEDB peptide-MHC binding, purified MHC/competitive/radioactivity; filed as Kd, often an IC50 or EC50 that approximates it; ≥ and ≤ were set here for values at or beyond the usual limits of such assays
# HLA-A*02:06 = experiment: as above
# HLA-A*02:02 = experiment: as above
# HLA-A*68:01 = experiment: as above
# HLA-A*33:01 = experiment: as above
# HLA-A*03:01 [1] = experiment: as above
# HLA-A*31:01 = experiment: as above
# HLA-A*11:01 = experiment: as above
# HLA-A*02:01 = experiment: IEDB peptide-MHC binding, purified MHC/direct/fluorescence; filed as Kd, often an IC50 or EC50 that approximates it; ≥ and ≤ were set here for values at or beyond the usual limits of such assays; settings: source organism: Haemophilus influenzae
# HLA-A*03:01 [2] = experiment: as above; settings: source organism: Mammarenavirus tacaribeense
# [3] = source organism: Vaccinia virus WR
# [4] = source organism: SARS coronavirus Tor2
# [5] = source organism: Dengue virus 3 Martinique/1243/1999
# [6] = source organism: Mammarenavirus brazilense
# [7] = source organism: Dengue virus 4 Philippines/H241/1956
# [8] = source organism: Lassa virus Josiah
# [9] = source organism: Lassa virus GA391
sequence,measurement,setting,value
RVKQWVMDTL,Kd,HLA-A*02:03; [3],689 nM
same,Kd,HLA-A*02:06; [3],≥ 27800 nM
same,Kd,HLA-A*02:02; [3],3480 nM
ATKRYPGVMY,Kd,HLA-A*68:01; [3],≥ 70200 nM
same,Kd,HLA-A*33:01; [3],≥ 70000 nM
same,Kd,HLA-A*03:01 [1]; [3],32.8 nM
same,Kd,HLA-A*31:01; [3],18100 nM
same,Kd,HLA-A*11:01; [3],164 nM
VTGLFKDCSK,Kd,HLA-A*68:01; [4],10300 nM
same,Kd,HLA-A*33:01; [4],≥ 57100 nM
same,Kd,HLA-A*03:01 [1]; [4],4670 nM
same,Kd,HLA-A*31:01; [4],5120 nM
same,Kd,HLA-A*11:01; [4],4740 nM
MSLYMAISPK,Kd,HLA-A*68:01; [4],10.7 nM
same,Kd,HLA-A*33:01; [4],1870 nM
same,Kd,HLA-A*03:01 [1]; [4],0.256 nM
same,Kd,HLA-A*31:01; [4],69.4 nM
same,Kd,HLA-A*11:01; [4],0.199 nM
VFHLYLQYIR,Kd,HLA-A*68:01; [4],868 nM
same,Kd,HLA-A*33:01; [4],174 nM
same,Kd,HLA-A*03:01 [1]; [4],713 nM
same,Kd,HLA-A*31:01; [4],56.3 nM
same,Kd,HLA-A*11:01; [4],1150 nM
DTSNNIAEYI,Kd,HLA-A*02:03; [3],9220 nM
same,Kd,HLA-A*02:06; [3],≥ 45700 nM
same,Kd,HLA-A*02:02; [3],3330 nM
CAVIPFDDIV,Kd,HLA-A*02:03; [3],7420 nM
same,Kd,HLA-A*02:06; [3],184 nM
same,Kd,HLA-A*02:02; [3],2920 nM
VQLSNNKYV,Kd,HLA-A*02:03; [3],541 nM
same,Kd,HLA-A*02:06; [3],214 nM
same,Kd,HLA-A*02:02; [3],7340 nM
LLDSIKMIY,Kd,HLA-A*68:01; [3],722 nM
same,Kd,HLA-A*33:01; [3],≥ 48600 nM
same,Kd,HLA-A*03:01 [1]; [3],4730 nM
same,Kd,HLA-A*31:01; [3],3350 nM
same,Kd,HLA-A*11:01; [3],17800 nM
ALLGERPII,Kd,HLA-A*02:01,7760 nM
TSFGPLVRK,Kd,HLA-A*68:01; [4],7.04 nM
same,Kd,HLA-A*33:01; [4],5250 nM
same,Kd,HLA-A*03:01 [1]; [4],4.39 nM
same,Kd,HLA-A*31:01; [4],452 nM
same,Kd,HLA-A*11:01; [4],0.21 nM
LIYDDNIDSI,Kd,HLA-A*02:03; [3],26.1 nM
same,Kd,HLA-A*02:06; [3],212 nM
same,Kd,HLA-A*02:02; [3],121 nM
DTIAHINTLI,Kd,HLA-A*02:03; [3],114 nM
same,Kd,HLA-A*02:06; [3],≥ 62200 nM
same,Kd,HLA-A*02:02; [3],1160 nM
GIITLYLGAV,Kd,HLA-A*02:03; [5],4.98 nM
same,Kd,HLA-A*02:06; [5],5.01 nM
EILRNYLRL,Kd,HLA-A*02:03; [3],2090 nM
same,Kd,HLA-A*02:06; [3],13000 nM
same,Kd,HLA-A*02:02; [3],14000 nM
KTDGAVTSPL,Kd,HLA-A*02:03; [3],400 nM
same,Kd,HLA-A*02:06; [3],347 nM
same,Kd,HLA-A*02:02; [3],61.9 nM
QTVDFTDCRT,Kd,HLA-A*02:03; [3],≥ 54300 nM
same,Kd,HLA-A*02:06; [3],3640 nM
same,Kd,HLA-A*02:02; [3],≥ 30500 nM
KLGDKGSPYY,Kd,HLA-A*68:01; [3],5080 nM
same,Kd,HLA-A*33:01; [3],≥ 39400 nM
same,Kd,HLA-A*03:01 [1]; [3],2.48 nM
same,Kd,HLA-A*31:01; [3],≥ 23100 nM
same,Kd,HLA-A*11:01; [3],3570 nM
TSETMYLTMK,Kd,HLA-A*68:01; [3],471 nM
same,Kd,HLA-A*33:01; [3],11000 nM
same,Kd,HLA-A*03:01 [1]; [3],1920 nM
same,Kd,HLA-A*31:01; [3],2000 nM
same,Kd,HLA-A*11:01; [3],111 nM
VVMDYLDNLK,Kd,HLA-A*68:01; [4],6730 nM
same,Kd,HLA-A*33:01; [4],≥ 46900 nM
same,Kd,HLA-A*03:01 [1]; [4],6520 nM
same,Kd,HLA-A*31:01; [4],≥ 36600 nM
same,Kd,HLA-A*11:01; [4],1960 nM
FTNSQIFNII,Kd,HLA-A*02:03; [3],457 nM
same,Kd,HLA-A*02:06; [3],1200 nM
same,Kd,HLA-A*02:02; [3],143 nM
VTLDFTKFH,Kd,HLA-A*68:01; [6],≥ 28400 nM
same,Kd,HLA-A*33:01; [6],≥ 57200 nM
same,Kd,HLA-A*03:01 [1]; [6],7440 nM
same,Kd,HLA-A*31:01; [6],13100 nM
same,Kd,HLA-A*11:01; [6],208 nM
KLSMGLIAIA,Kd,HLA-A*02:03; [7],22.9 nM
CNYSKYWYL,Kd,HLA-A*02:03; [8],7130 nM
same,Kd,HLA-A*02:06; [8],2700 nM
same,Kd,HLA-A*02:02; [8],3660 nM
KTKISVEKI,Kd,HLA-A*02:03; [3],112 nM
same,Kd,HLA-A*02:06; [3],10700 nM
same,Kd,HLA-A*02:02; [3],7600 nM
EFIFSALDEK,Kd,HLA-A*68:01; [3],1.3 nM
same,Kd,HLA-A*33:01; [3],1630 nM
same,Kd,HLA-A*03:01 [1]; [3],15.5 nM
same,Kd,HLA-A*31:01; [3],≥ 70000 nM
same,Kd,HLA-A*11:01; [3],1.42 nM
NYSRYWYLNH,Kd,HLA-A*68:01; [9],≥ 70100 nM
same,Kd,HLA-A*33:01; [9],1360 nM
same,Kd,HLA-A*03:01 [1]; [9],16200 nM
same,Kd,HLA-A*31:01; [9],7960 nM
same,Kd,HLA-A*11:01; [9],≥ 30800 nM
SLYGRYNCK,Kd,HLA-A*03:01 [2],89 nM
YIENTNQGNI,Kd,HLA-A*02:03; [3],582 nM
same,Kd,HLA-A*02:06; [3],6200 nM
same,Kd,HLA-A*02:02; [3],1220 nM
NFFVFIHMVR,Kd,HLA-A*68:01; [3],0.996 nM
same,Kd,HLA-A*33:01; [3],7.99 nM
same,Kd,HLA-A*03:01 [1]; [3],174 nM
same,Kd,HLA-A*31:01; [3],18.6 nM
same,Kd,HLA-A*11:01; [3],718 nM
VVECLTVPNI,Kd,HLA-A*02:03; [3],19600 nM
same,Kd,HLA-A*02:06; [3],301 nM
same,Kd,HLA-A*02:02; [3],8420 nM
FMLIFNVKSK,Kd,HLA-A*68:01; [3],37.7 nM
same,Kd,HLA-A*33:01; [3],19400 nM
same,Kd,HLA-A*03:01 [1]; [3],211 nM
same,Kd,HLA-A*31:01; [3],6050 nM
same,Kd,HLA-A*11:01; [3],3430 nM
LMIFISSFL,Kd,HLA-A*02:03; [3],0.13 nM
same,Kd,HLA-A*02:06; [3],17.8 nM
same,Kd,HLA-A*02:02; [3],0.651 nM
QQQQGQTVTK,Kd,HLA-A*68:01; [4],11300 nM
same,Kd,HLA-A*33:01; [4],≥ 70000 nM
same,Kd,HLA-A*03:01 [1]; [4],10200 nM
same,Kd,HLA-A*31:01; [4],≥ 27800 nM
same,Kd,HLA-A*11:01; [4],492 nM
NISIISIRPR,Kd,HLA-A*68:01; [3],5.1 nM
same,Kd,HLA-A*33:01; [3],285 nM
same,Kd,HLA-A*03:01 [1]; [3],2640 nM
same,Kd,HLA-A*31:01; [3],49.6 nM
same,Kd,HLA-A*11:01; [3],866 nM
TTFITVLTSV,Kd,HLA-A*02:03; [3],16.1 nM
same,Kd,HLA-A*02:06; [3],166 nM
same,Kd,HLA-A*02:02; [3],1120 nM
AVFKMSPGYV,Kd,HLA-A*02:03; [7],7.15 nM
TTNNLLEQLI,Kd,HLA-A*02:03; [3],≥ 21000 nM
same,Kd,HLA-A*02:06; [3],13100 nM
same,Kd,HLA-A*02:02; [3],8880 nM
